The source of these data is patent publication US20140120095A1 (Boehringer Ingelheim, published 2014).

The target in assay [1] is T1, mouse DLL4 overexpressed on cells (mouse, UniProt Q9JI71 27-686).
T1 construct: whole, on cells; also called CHO-mDLL4; CHO-mDII4
In words: competitive FMAT, hNotch1-Fc on CHO-mDLL4.

Assay [2] addresses T2, recombinant human DLL4 (human, UniProt Q9NR61 25-522).
T2 construct: also called rhDLL4; hDLL4
In words: Biacore off-rate, periplasmic extract. For orientation: SPR reads the build-up and loss of mass on a sensor chip optically.

The target in assay [3] is T3, recombinant mouse DLL4 (mouse, UniProt Q9JI71 27-532).
T3 construct: extracellular domain; also called rmDLL4; mDLL4
The experiment in a line: Biacore, VHH on chip, 200 nM DLL4 sample injected.

The target in another assay is hDLL4.5 (human). In words: Biacore, VHH on chip, 200 nM DLL4 sample injected.
Another assay has as its target mDLL4.11 (mouse). In words: Biacore, VHH on chip, 200 nM DLL4 sample injected.
In another assay the target is mDLL4.10 (mouse). In words: Biacore, VHH on chip, 200 nM DLL4 sample injected.
Assay [4] addresses human DLL4 overexpressed on cells (human, UniProt Q9NR61 27-685). In words: cell-based or functional assay.
The target in the next assay is T4, human Jagged-1 (human, UniProt P78504 34-1067, limits assumed).
T4 construct: also called hJagged-1; hJAG1
The experiment in a line: binding ELISA on coated recombinant human Jagged-1, OD 405 nm. The gist of the method: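 Plates coated overnight at 4° C with 1 μg/mL ligand, blocked with 1% casein in PBS. VHH dilution series applied; bound VHH detected via mouse anti-myc then anti-mouse-AP conjugate.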
(ELISA stands for enzyme-linked immunosorbent assay.)

Assay [5] has as its target T2, recombinant human DLL4. In words: cell-based or functional assay.
Assay [6] addresses T3, recombinant mouse DLL4. The experiment in a line: binding ELISA, coated rmDLL4. The procedure:
In order to determine cross-reactivity to mouse DII4 a binding ELISA is performed. […] Wells are blocked with a casein solution (1% in PBS). VHHs are applied as dilution series and binding is detected using a mouse anti-myc (Roche) and an anti-mouse-AP conjugate (Sigma, St Louis, Mo., USA) (FIG. 7 A-H). As reference, binding to human DII4 is measured.

Assay [7] concerns the target T5, recombinant human DLL4 (C-terminally His-tagged extracellular domain, R&D Systems) (human, UniProt Q9NR61 25-522, biotinylated in the competition ELISA).
T5 construct: also called rhDLL4; hDLL4
In words: binding ELISA on coated recombinant human DLL4 (Example 5.8, Example 7), OD 450 nm.

Another assay addresses T6, human DLL1 (Alexis) (human, UniProt O00548 18-545, limits assumed).
T6 construct: also called hDLL1
T6 sequence (looked up): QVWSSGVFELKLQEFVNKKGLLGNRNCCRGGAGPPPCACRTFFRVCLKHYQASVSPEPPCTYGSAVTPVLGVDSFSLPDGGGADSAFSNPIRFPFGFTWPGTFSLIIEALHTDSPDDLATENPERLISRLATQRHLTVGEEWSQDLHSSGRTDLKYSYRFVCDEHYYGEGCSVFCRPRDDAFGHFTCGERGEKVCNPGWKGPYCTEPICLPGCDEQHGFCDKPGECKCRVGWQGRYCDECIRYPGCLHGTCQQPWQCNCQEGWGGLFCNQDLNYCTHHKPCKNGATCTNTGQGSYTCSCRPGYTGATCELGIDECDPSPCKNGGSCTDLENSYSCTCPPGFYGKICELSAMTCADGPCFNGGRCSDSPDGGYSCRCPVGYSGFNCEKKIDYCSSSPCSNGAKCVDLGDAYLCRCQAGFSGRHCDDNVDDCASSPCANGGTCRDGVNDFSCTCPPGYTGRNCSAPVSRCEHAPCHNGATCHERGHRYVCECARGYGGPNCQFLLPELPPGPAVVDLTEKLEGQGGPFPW
The experiment in a line: binding ELISA on coated human DLL1 (Example 5.8, Example 7), OD 450 nm.

Assay [8] deals with T7, recombinant mouse DLL4 (C-terminally His-tagged extracellular domain, R&D Systems) (mouse, UniProt Q9JI71 27-532).
T7 construct: extracellular domain; also called rmDLL4; mDLL4
In words: binding ELISA on coated recombinant mouse DLL4 (Example 5.8, Example 7), OD 450 nm.

The target of another assay is T8, human Jagged-1 (Alexis) (human, UniProt P78504 34-1067, limits assumed).
T8 construct: also called hJag-1; hJAG1
The experiment in a line: binding ELISA on coated human Jagged-1 (Example 5.8, Example 7), OD 405 nm.

The target of assay [9] is T7, recombinant mouse DLL4 (C-terminally …). The experiment in a line: binding ELISA on coated recombinant mouse DLL4 (Example 5.8, Example 7), OD 450 nm. This is another data set of the same source.

Like-named read-outs stand apart in the source and are kept apart here.

T1 sequence (Q9JI71 27-686): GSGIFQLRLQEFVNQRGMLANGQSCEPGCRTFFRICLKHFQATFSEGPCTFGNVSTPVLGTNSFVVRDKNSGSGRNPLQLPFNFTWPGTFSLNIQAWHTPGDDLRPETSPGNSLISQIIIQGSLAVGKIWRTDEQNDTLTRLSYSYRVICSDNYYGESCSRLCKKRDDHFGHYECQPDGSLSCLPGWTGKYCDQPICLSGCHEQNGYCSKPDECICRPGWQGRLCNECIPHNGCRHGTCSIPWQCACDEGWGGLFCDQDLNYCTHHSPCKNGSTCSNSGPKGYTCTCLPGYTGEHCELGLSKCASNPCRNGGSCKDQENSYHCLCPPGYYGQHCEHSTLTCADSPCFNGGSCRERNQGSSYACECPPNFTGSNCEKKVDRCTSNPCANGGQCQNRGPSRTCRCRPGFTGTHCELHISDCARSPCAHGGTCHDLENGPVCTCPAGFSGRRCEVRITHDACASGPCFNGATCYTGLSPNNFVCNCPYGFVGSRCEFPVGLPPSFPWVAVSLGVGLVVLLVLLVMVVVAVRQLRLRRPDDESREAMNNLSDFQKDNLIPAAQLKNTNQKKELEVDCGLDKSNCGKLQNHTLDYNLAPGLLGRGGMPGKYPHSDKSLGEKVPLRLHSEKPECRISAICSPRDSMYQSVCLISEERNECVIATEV
T3 sequence (Q9JI71 27-532): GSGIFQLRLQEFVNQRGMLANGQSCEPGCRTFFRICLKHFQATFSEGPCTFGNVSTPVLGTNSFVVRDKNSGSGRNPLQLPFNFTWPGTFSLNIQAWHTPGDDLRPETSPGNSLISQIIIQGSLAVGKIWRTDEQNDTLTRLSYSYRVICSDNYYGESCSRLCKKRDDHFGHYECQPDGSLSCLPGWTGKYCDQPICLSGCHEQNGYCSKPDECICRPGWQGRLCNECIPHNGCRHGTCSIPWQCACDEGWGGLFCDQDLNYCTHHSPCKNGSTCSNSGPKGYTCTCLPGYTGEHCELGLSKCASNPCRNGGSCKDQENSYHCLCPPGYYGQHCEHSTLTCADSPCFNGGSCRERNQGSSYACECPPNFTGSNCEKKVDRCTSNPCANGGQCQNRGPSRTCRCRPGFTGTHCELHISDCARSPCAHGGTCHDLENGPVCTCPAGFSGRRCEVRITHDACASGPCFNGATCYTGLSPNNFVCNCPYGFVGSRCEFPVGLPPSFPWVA
T7 sequence (Q9JI71 27-532): as above

B1: DLLBII115A05 (VHH)
VHH: EVQLVESGGGLVQPGGSLRLSCAASGFTFGSYDMSWVRRSPGKGPEWVSSINSGGGSTYYADFVKGRFTISRDNAKNTLYLQMNSLKPEDTAVYYCAADRYIRARQGDYWGAYEYDYWGQGTQVTVSS
notes: also called 115A5; DLLBII115A5
For B1, the IC50 (commonly the concentration that gives 50% inhibition) in assay [1] is 43 nM. The koff (in general, a measure of how fast the partners let go of each other) with recombinant human DLL4 [2] was determined as 0.0031 s⁻¹; with recombinant mouse DLL4 [3], 0.0065 s⁻¹; in the assay with hDLL4.5 it was 0.0042 s⁻¹; in the assay with mDLL4.11, 0.0066 s⁻¹; in the assay with mDLL4.10, 0.0038 s⁻¹. In addition, the “Binding (RU)” value with recombinant mouse DLL4 [3] was 344 RU; with hDLL4.5, 162 RU; in the assay with mDLL4.11 it was 121 RU; with mDLL4.10, 121 RU. The “IC50, DLL4/Notch1 reporter assay” value in assay [4] came to 1740 nM. Moreover, the binding result with human Jagged-1 was “no binding (tested: 5e-7 M)”. Besides, the “IC50 (nM) (experiment 1), DLL4 proliferation assay (HUVEC)” value with recombinant human DLL4 [5] worked out at 10000 nM. Moreover, the EC50 (in general, the concentration at which the effect is half-maximal) with recombinant mouse DLL4 [6] turned out to be 33.4 nM.

B2: DLLBII133G05 (VHH, not shown: small tags and cut ends)
VHH: EVQLVESGGGLVQPGGSLRLSCAASGFTFGSYDMSWVRRSPGKGPEWVSAINSGGGSTYYTDYVKGRFTISRDNAKNTLYLQMNSLKPEDTAVYYCAADRYIWARQGEYWGAYAYDYWGQGTQVTVSS
Consider B2, for which the “EC50 (read off the curve)” value in [7] and in [8] was about 0.4 nM each time. Also, the binding result in the assay with human DLL1 (Alexis) was “no binding (tested: log[M] -6.1 (about 8e-7 M))”.

B3: DLLBII015 (VHH, not shown: small tags and cut ends)
VHH: EVQLVESGGGLVQPGGSLRLSCAASGFTIGSYDMSWVRRSPGKGPEWVSAINSGGGSTYYADYVKGRFTISRDNAKNTLYLQMNSLKPEDTAVYYCAADRYIWARQGEYWGAYAYDYWGQGTQVTVSS
In the case of B3, the EC50 (read off the curve) – broadly, the concentration at which the effect is half-maximal – is about 0.6 nM in assay [7] and about 1 nM in assay [8]. For the same molecule, the binding result with human DLL1 (Alexis) is “no binding (tested: log[M] -6.1 (about 8e-7 M))”.

B4: DLLBII136C07 (VHH, not shown: small tags and cut ends)
VHH: EVQLVESGGGLVQPGGSLRLSCAASGFTFGSYDMSWVRRSPGKGPEWVSSINSGGGSTYYADYVKGRFTISRDNAKNTLYLQMNSLKPEDTAVYYCAADRYIWARQGEYWGAYEYDYWGQGTQVTVSS
B4: the results for the “EC50 (read off the curve)” value in assay [7] and in assay [8] were about 0.6 nM and about 1 nM, respectively. Moreover, the binding result in the assay with human DLL1 (Alexis) is “no binding (tested: log[M] -6.1 (about 8e-7 M))”.

B5: DLLBII133A09 (VHH, not shown: small tags and cut ends)
VHH: EVQLVESGGGLVQPGGSLRLSCAASGFTFGSYDMSWVRRSPGKGPEWVSAINSGGGSTYYADYVKGRFTISRDNAKNTLYLQMNSLKPEDTAVYYCAADRYIWARQGEYWGAYAYDYWGQGTQVTVSS
Turning to B5, the “EC50 (read off the curve)” value in assay [7] was about 0.6 nM; in [8], about 1 nM. Further, the binding result with human DLL1 (Alexis) is “no binding (tested: log[M] -6.1 (about 8e-7 M))”.

B6: DLLBII101G08 (VHH)
VHH: EVQLVESGGGLVQAGGSLRLSCAASGRTFSSYAMAWFRQAPGKEREFVAAIRWSGGTAYYADSVQGRFTISRDNAKNTVYLQMNSLKPEDTAVYYCANRAADTRLGPYEYDYWGQGTQVTVSS
notes: also called 101G8; DLLBII101G8
With B6, in [1], the IC50 was determined as 92.1 nM. The koff with recombinant human DLL4 [2] was determined as 0.0021 s⁻¹; with recombinant mouse DLL4 [3] it was 0.006 s⁻¹; in the assay with hDLL4.5, 0.00219 s⁻¹; with mDLL4.11, 0.00616 s⁻¹; with mDLL4.10, 0.00514 s⁻¹. Moreover, the “Binding (RU)” value in the assay with recombinant mouse DLL4 [3] was determined as 502 RU; in the assay with hDLL4.5, 266 RU; with mDLL4.11 it was 210 RU; in the assay with mDLL4.10, 189 RU. In [4], the “IC50, DLL4/Notch1 reporter assay” value is 2760 nM. For the same molecule, in the assay with human Jagged-1, the binding result is “no binding (tested: 5e-7 M)”. For the same molecule, the “IC50 (nM) (experiment 1), DLL4 proliferation assay (HUVEC)” value with recombinant human DLL4 [5] worked out at 401 nM. The “IC50 (nM) (experiment 2), DLL4 proliferation assay (HUVEC)” value with recombinant human DLL4 [5] stood at 112 nM. Besides, the concentration for a half-maximal effect (EC50) with recombinant mouse DLL4 [6] was 53.9 nM.

B7: DLLBII101G08 (VHH, not shown: small tags and cut ends)
VHH: EVQLVESGGGLVQAGGSLRLSCAASGRTFSSYAMAWFRQAPGKEREFVAAIRWSGGTAYYADSVQGRFTISRDNAKNTVYLQMNSLKPEDTAVYYCANRAADTRLGPYEYDYWGQGTQVTVSS
notes: parent VHH; also called 101G08 (wt); 101G8
In the case of B7, the binding result with human Jagged-1 (Alexis) is “no binding (tested: log[M] -6.1 (about 8e-7 M))”.

B8: DLLBII129D08 (VHH, not shown: small tags and cut ends)
VHH: EVQLVESGGGLVQAGGSLRLSCAASGRTFSSYAMAWYRQAPGKEREYVAAIRWSGGTAYYADSVQGRFTISRDNAKNTVYLQMNSLKPEDTAVYYCANRAPDTRLEPYLYDYWGQGTQVTVSS
As to B8, in assay [9], the “EC50 (read off the curve)” value is about 0.8 nM. For the same molecule, the binding result in the assay with human Jagged-1 (Alexis) was “no binding (tested: log[M] -6.1 (about 8e-7 M))”.

B9: DLLBII129B05 (VHH, not shown: small tags and cut ends)
VHH: EVQLVESGGGLVQAGGSLRLSCAASGRTFSSYAMAWYRQAPGKEREYVAAIRWSGGTAYYADSVQGRFTISRDNAKNTVYLQMNSLKPEDTAVYYCANRAPDTRLAPYEYDHWGQGTQVTVSS
Turning to B9, the “EC50 (read off the curve)” value in [9] is about 0.8 nM. For the same molecule, the binding result with human Jagged-1 (Alexis) is “no binding (tested: log[M] -6.1 (about 8e-7 M))”.

B10: DLLBII129E11 (VHH, not shown: small tags and cut ends)
VHH: EVQLVESGGGLVQAGGSLRLSCAASGRTFSSYAMAWYRQAPGKEREYVAAIRWSGGTAYYADSVQGRFTISRDNAKNTVYLQMNSLKPEDTAVYYCANRAPDTRLRPYLYDYWGQGTQVTVSS
Turning to B10, in [9], the “EC50 (read off the curve)” value is about 0.8 nM. In addition, the binding result with human Jagged-1 (Alexis) is “no binding (tested: log[M] -6.1 (about 8e-7 M))”.

B11: DLLBII56A09 (VHH)
VHH: EVQLVESGGGLVQPGGSLRLSCAASGFTFDDYAIGWFRQAPGKEPEGISCISSSGGITYYADSVKGRFTTSRDNAKNTVYLQMNSLKPEDTAVYYCATPGIAACRGIHYTGQGTQVTVSS
notes: also called 56A9; DLLBII56A9
In [1], B11 came in with an IC50 of 15 nM. For the same molecule, the koff worked out at 0.0011 s⁻¹ in the assay with recombinant human DLL4 [2]; 0.0019 s⁻¹ in the assay with recombinant mouse DLL4 [3]; 0.0012 s⁻¹ with hDLL4.5; 0.0016 s⁻¹ with mDLL4.11; 0.0011 s⁻¹ with mDLL4.10. Also, the “Binding (RU)” value with recombinant mouse DLL4 [3] stood at 389 RU; with hDLL4.5, 143 RU; with mDLL4.11, 132 RU; in the assay with mDLL4.10, 141 RU. Also, the “IC50, DLL4/Notch1 reporter assay” value in [4] turned out to be 540 nM. Also, the binding result with human Jagged-1 was “no binding (tested: 5e-7 M)”. Besides, in the assay with recombinant human DLL4 [5], the “IC50 (nM) (experiment 1), DLL4 proliferation assay (HUVEC)” value was 11 nM. Besides, in the assay with recombinant human DLL4 [5], the “IC50 (nM) (experiment 2), DLL4 proliferation assay (HUVEC)” value was 6.8 nM. Further, in the assay with recombinant mouse DLL4 [6], the EC50 was determined as 6.3 nM.
